Experimental data from patent US20110160081A1, “FUNCTIONAL COMPLEMENTATION ASSAY FOR DEFINED GPCR OLIGOMERS” (priority 2008, published 2011).

Legend:
Test in all cases: cell-based or functional assay
[1] = target: DOR-Gqi5 (delta opiate receptor fused to Gqi5) (mouse)
[2] = target: D114^3.32A/E339^6.30A/T343^6.34R-Gq5 (human)
N393A/CAM-Gqi5 (human) = target: N393A/CAM-Gqi5 (human)

Sequence of Myc-tagged D2R (unfused wild type dopamine D2 receptor, short isoform) (P14416 other isoform, or with tags, fused parts or gaps): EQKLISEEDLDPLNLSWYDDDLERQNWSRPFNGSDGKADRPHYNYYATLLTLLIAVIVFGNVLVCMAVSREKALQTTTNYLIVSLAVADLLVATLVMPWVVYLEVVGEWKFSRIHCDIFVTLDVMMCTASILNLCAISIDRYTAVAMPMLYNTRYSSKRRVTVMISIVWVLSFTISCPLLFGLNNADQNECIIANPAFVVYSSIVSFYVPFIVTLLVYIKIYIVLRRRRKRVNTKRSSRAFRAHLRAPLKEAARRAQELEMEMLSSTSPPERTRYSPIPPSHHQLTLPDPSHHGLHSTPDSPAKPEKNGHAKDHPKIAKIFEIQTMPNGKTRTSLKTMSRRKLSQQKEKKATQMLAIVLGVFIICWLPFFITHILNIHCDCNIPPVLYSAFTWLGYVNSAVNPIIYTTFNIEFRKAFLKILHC

Substance	activation at 5 nM DPDPE, aequorin luminescence [1] [% activation]	maximal activity, aequorin luminescence [2]	potency of quinpirole in the presence of 5 nM DPDPE, aequorin luminescence [1] [fold]	aequorin luminescence on quinpirole (functional complementation) (N393A/CAM-Gqi5 (human)) [fold]
DPDPE (peptide)	10	–	–	–
Myc-tagged D2R (unfused wild type dopamine D2 receptor, short isoform) (from UniProt P14416 2-443)	–	49.6	10	3
